{"source": "patent CN111995674A", "about": "(INST MILITARY MEDICINE ACADEMY MILITARY SCIENCES PLA, dated 2020)", "binders": {"B1": {"name": "人鼠嵌合全抗体mhC3 (antibody, V domains shown)", "VH": "EVQLVESGGDLVKPGGSLKLSCAASGFTFNTYAMNWVRQTPGKGLEWVARIRSKSNNYATYYADSVKDRFTISRDDSQSMLYLQMNNLKTEDTAMYYCVTPYYGNYADWFTYWGQGTSVTVSS", "VL": "not shown", "notes": "also called mhC3抗体; C3 (图5、图6)"}}, "molecular_target": "T1, 肉毒毒素AHC片段 (UniProt P0DPI1 873-1296)", "T1 construct": "domain: AHC片段", "T1 sequence (P0DPI1 873-1296 limits assumed)": "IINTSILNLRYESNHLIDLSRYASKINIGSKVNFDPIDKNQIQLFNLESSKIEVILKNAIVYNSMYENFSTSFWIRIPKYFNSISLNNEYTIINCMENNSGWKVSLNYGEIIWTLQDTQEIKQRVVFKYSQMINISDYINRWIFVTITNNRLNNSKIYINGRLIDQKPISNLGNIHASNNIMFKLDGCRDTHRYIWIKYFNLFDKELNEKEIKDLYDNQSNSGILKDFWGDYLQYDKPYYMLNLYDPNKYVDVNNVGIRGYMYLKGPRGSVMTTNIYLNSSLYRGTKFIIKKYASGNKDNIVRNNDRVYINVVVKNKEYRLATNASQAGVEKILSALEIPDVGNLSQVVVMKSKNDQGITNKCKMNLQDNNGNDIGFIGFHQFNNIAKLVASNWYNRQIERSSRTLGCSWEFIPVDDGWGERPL", "experiment": "ELISA, coated antigen, anti-human IgG-HRP"}
{"binder": "B1", "values": [{"measurement": "binding result", "value": "no binding (tested: 300μg/mL)"}]}
